Reference: patent US20250313645A1 (COMPASS THERAPEUTICS, published 2025)

Legend:
[1] = biological target: T1, Fc-, mouse IgG2a-, or His-tagged human CD137 (human, UniProt Q07011 24-186); test: BLI (Octet HTX), tagged CD137 on biosensor, Fab 0-500 nM in solution, global 1:1 fit, apparent KD; upper end of the printed range 50-70 nM
T1 construct: Sources were ACRO Biosystems, Sino Biological and internal; not shown: Fc, mouse IgG2a or His tag
Method: (§1) The anti-CD137 antibodies were further tested for their binding to CD137 from multiple species. Specifically, mAb1, mAb8 and mAb10 were analyzed for binding to human, mouse, cynomolgus and canine CD137. Kinetic experiments were performed on OCTET HTX (ForteBio) in kinetics buffer (1×PBS, pH 7.4, 0.1 mg/ml BSA, and 0.002% Tween 20). Fc-, mouse IgG2a-, or His-tagged CD137 (human, mouse, cyno or canine) were loaded for 5 minutes on pre-hydrated biosensors, AHC, AMC or NTA respectively. The sensors were then dipped into Fabs (0, 5.12, 12.8, 32, 80, 200 and 500 nM) for 5 minutes of association, following by 15 minutes of dissociation. Results were analyzed with ForteBio Data Analysis 9.0 and fit globally to a 1:1 binding model to determine the apparent KD. KD for human and mouse CD137 binding were confirmed by using antigens from different sources (ACRO Biosystems, Sino Biological and internal).

[2] = biological target: T1, Fc-, mouse IgG2a-, or His-tagged human …; test: BLI (Octet HTX), tagged CD137 on biosensor, Fab 0-500 nM in solution, global 1:1 fit, apparent KD; lower end of the printed range 50-70 nM
Method: as §1

B1: mAb1 Fab (Fab, V domains shown)
VH: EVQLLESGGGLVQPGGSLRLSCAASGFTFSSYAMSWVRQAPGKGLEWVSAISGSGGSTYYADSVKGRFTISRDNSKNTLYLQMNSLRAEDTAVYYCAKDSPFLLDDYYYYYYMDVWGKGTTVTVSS
VL: DIQMTQSPSSVSASVGDRVTITCRASQGISSWLAWYQQKPGKAPKLLIYAASSLQSGVPSRFSGSGSGTDFTLTISSLQPEDFATYYCQQGHLFPITFGGGTKVEIK
Kd [1]: ≤ 70 nM | Kd [2]: ≥ 50 nM
